Measurements reported in patent US20250340636A1 (Memorial Sloan Kettering, published 2025).

Key:
[1] = target: T1, human CHL-1 (residues 25-1096 with a C-terminal 10xHis tag) (human, UniProt O00533 25-1096); assay: ELISA, plates coated with human CHL-1
T1 construct: range 25-1096; also called L1CAM-2; L1CAM2
T1 sequence: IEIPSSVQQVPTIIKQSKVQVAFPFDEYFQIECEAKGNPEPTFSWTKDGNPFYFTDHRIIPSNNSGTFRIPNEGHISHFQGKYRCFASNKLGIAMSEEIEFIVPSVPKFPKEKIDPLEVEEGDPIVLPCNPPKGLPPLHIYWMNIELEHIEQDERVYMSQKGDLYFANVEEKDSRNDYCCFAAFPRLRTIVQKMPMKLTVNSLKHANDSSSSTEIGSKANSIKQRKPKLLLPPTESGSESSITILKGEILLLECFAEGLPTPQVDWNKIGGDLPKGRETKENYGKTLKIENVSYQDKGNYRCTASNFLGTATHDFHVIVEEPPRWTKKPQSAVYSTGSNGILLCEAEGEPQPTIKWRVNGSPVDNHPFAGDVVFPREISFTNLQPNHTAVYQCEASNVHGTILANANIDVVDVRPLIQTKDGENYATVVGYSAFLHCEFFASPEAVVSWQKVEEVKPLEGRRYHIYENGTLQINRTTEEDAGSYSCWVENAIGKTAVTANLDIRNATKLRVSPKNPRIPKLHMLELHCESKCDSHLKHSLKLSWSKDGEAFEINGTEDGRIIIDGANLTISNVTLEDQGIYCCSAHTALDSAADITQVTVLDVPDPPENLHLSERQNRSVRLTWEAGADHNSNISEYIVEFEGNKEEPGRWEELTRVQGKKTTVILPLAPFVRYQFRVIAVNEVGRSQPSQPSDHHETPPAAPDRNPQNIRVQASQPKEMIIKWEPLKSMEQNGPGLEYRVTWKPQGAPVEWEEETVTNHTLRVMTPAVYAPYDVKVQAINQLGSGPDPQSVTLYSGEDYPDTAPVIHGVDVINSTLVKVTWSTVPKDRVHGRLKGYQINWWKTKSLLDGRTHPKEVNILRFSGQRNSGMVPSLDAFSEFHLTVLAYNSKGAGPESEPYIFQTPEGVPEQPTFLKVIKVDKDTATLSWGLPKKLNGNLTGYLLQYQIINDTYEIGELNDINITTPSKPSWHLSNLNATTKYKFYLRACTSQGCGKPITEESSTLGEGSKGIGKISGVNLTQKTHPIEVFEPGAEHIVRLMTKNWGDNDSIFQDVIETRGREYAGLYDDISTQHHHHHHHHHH
From the text: Selectivity. […] These proteins are other members of the L1 family of cell adhesion proteins and have between 49% and 55% sequence similarity with L1CAM in the extracellular portion. […] Positive control antibodies were included for each homolog. […] Epitope. The extracellular portion of L1CAM contains six immunoglobulin-like (Ig) domains and five fibronectin type III (FN) domains. To narrow down the binding region of the development candidate mAbs, truncated versions of human L1CAM protein (Ig domain, residues 21-605; FN domain, residues 606-1116; each with a C-terminal 6×His tag) were recombinantly produced, followed by a BLI experiment to test binding at 50 and 100 nM. […] 6×His tag is set forth in SEQ ID NO: 316.

[2] = target: T2, human L1CAM on cells (human, UniProt P32004 20-1257); assay: summary table; binding to cells with endogenous L1CAM (MCF-7)
T2 construct: Overexpressed on stably transfected HEK293T cells or endogenous on MCF-7 and MDA-MB-231 cells; also called HEK293T-hL1CAM
Method: (§1) Binding to L1CAM on Cells. […] Cells were then incubated with an AlexaFluor 647 goat anti-human Fc secondary antibody. After washing, the stained cells were analyzed by flow cytometry.
(§2) The binding curves for each antibody and cell line normalized to secondary antibody only staining (MFI ratio) are shown in FIGS. 14A-14C. EC50 values were determined by non-linear regression (Table 70). […] It is possible that differences in the conformation and oligomerization of L1CAM, depending on the surface expression level, contributed to the binding pattern. […] An avidity effect due to high levels of L1CAM surface expression may have contributed to the strong binding observed in this experiment.

[3] = target: T3, extracellular domain of human L1CAM (isoform 1) fused to a poly-histidine tag via its carboxy terminus (human, UniProt P32004 20-1120); assay: BLI (Octet Red96e), His-tagged human L1CAM on Ni-NTA biosensors, mAb as analyte, 1:1 fit
T3 construct: Bought (Creative Biomart); also called L1CAM-His; huL1CAM protein
Method: (§3) Binding to L1CAM in Solution. Affinity to human L1CAM was measured by BLI using an Octet Red96e instrument. […] The data was prepared by reference well subtraction, and response curves were globally fit to a 1:1 Langmuir binding model.

[4] = target: T2, human L1CAM on cells; assay: summary table; binding to cells with endogenous L1CAM (MDA-MB-231)
Method: as §1, §2

[5] = target: T2, human L1CAM on cells; assay: flow cytometry, HEK293T-hL1CAM cells, AlexaFluor 647 anti-human Fc secondary
Method: as §1, §2

[6] = target: T4, soluble cynomolgus monkey L1CAM, His-tagged, monomeric (cynomolgus monkey, UniProt A0A2K5URB5 20-1120); assay: summary table; soluble cynomolgus monkey L1CAM (monomer)
T4 construct: also called cyL1CAM protein; cynomolgus L1CAM-His
Method: (§4) Cross-reactivity to Cynomolgus Monkey L1CAM. Affinity to cynomolgus L1CAM was measured by BLI using an Octet Red96e instrument. […] The data was prepared by reference well subtraction, and response curves were globally fit to a 1:1 Langmuir binding model.

[7] = target: T5, mouse L1CAM on transiently transfected HEK293FT cells (mouse, UniProt P11627 20-1260); assay: flow cytometry, cells transfected with mouse L1CAM
T5 construct: whole, on cells; also called mouse L1CAM on cells

[8] = target: T4, soluble cynomolgus monkey L1CAM, …; assay: BLI (Octet Red96e), His-tagged cynomolgus L1CAM on Ni-NTA biosensors, mAb as analyte, 1:1 fit
Method: as §4

[9] = target: T2, human L1CAM on cells; assay: summary table; binding to cells overexpressing human L1CAM (HEK293T)
Method: as §1, §2

[10] = target: T4, soluble cynomolgus monkey L1CAM, …; assay: BLI, cynomolgus against human L1CAM-His
Method: as §4

[11] = target: T6, soluble mouse L1CAM (monomer), His-tagged (mouse, UniProt P11627 20-1123, limits assumed); assay: BLI (Octet Red96e), His-tagged L1CAM on Ni-NTA biosensors, mAb as analyte
T6 construct: read as mouse
Method: Cross-reactivity to Mouse L1CAM. Affinity to mouse L1CAM was measured by BLI using an Octet Red96e instrument. […] The data was prepared by reference well subtraction, and response curves were globally fit to a 1:1 Langmuir binding model.

[12] = target: T3, extracellular domain of human L1CAM …; assay: BLI, His-tagged human L1CAM
Method: as §3

[13] = target: T2, human L1CAM on cells; assay: flow cytometry, MCF-7 cells, AlexaFluor 647 anti-human Fc secondary
Method: as §1, §2

[14] = target: T2, human L1CAM on cells; assay: flow cytometry, MDA-MB-231 cells, AlexaFluor 647 anti-human Fc secondary
Method: as §1, §2

[15] = target: T3, extracellular domain of human L1CAM …; assay: summary table; binding to soluble human L1CAM (monomer)
Method: as §3

T2 sequence (P32004 20-1257): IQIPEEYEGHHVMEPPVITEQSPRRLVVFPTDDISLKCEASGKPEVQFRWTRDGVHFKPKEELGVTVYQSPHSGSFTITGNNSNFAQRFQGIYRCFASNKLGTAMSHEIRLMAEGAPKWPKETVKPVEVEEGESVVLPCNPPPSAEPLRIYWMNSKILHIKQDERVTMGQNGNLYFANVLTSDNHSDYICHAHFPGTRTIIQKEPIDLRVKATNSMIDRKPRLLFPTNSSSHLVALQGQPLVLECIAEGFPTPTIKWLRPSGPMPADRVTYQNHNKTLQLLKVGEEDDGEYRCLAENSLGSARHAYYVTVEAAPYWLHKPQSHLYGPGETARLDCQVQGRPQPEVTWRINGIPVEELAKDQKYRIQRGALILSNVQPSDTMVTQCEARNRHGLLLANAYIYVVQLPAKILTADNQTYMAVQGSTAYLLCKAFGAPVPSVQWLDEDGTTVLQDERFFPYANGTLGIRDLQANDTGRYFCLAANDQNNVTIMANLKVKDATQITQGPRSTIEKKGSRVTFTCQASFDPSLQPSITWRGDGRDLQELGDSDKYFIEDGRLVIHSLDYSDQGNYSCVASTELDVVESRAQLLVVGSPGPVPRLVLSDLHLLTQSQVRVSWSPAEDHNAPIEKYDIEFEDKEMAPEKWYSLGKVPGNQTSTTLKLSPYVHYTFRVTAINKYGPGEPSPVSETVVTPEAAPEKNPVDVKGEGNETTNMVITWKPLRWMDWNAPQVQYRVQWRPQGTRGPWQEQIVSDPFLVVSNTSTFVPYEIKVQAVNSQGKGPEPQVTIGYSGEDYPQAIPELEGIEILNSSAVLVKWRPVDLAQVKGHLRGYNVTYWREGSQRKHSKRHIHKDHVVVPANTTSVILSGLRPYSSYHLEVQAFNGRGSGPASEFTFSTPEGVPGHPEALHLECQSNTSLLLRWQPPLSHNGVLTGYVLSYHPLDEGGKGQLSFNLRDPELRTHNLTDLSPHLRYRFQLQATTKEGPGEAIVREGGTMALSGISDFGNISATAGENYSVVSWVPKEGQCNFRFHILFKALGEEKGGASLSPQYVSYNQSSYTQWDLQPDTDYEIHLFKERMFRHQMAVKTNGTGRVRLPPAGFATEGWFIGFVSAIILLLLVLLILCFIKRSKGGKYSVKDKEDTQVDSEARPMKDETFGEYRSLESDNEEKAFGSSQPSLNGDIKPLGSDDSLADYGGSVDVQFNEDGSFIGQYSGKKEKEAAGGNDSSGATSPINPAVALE
T3 sequence (P32004 20-1120): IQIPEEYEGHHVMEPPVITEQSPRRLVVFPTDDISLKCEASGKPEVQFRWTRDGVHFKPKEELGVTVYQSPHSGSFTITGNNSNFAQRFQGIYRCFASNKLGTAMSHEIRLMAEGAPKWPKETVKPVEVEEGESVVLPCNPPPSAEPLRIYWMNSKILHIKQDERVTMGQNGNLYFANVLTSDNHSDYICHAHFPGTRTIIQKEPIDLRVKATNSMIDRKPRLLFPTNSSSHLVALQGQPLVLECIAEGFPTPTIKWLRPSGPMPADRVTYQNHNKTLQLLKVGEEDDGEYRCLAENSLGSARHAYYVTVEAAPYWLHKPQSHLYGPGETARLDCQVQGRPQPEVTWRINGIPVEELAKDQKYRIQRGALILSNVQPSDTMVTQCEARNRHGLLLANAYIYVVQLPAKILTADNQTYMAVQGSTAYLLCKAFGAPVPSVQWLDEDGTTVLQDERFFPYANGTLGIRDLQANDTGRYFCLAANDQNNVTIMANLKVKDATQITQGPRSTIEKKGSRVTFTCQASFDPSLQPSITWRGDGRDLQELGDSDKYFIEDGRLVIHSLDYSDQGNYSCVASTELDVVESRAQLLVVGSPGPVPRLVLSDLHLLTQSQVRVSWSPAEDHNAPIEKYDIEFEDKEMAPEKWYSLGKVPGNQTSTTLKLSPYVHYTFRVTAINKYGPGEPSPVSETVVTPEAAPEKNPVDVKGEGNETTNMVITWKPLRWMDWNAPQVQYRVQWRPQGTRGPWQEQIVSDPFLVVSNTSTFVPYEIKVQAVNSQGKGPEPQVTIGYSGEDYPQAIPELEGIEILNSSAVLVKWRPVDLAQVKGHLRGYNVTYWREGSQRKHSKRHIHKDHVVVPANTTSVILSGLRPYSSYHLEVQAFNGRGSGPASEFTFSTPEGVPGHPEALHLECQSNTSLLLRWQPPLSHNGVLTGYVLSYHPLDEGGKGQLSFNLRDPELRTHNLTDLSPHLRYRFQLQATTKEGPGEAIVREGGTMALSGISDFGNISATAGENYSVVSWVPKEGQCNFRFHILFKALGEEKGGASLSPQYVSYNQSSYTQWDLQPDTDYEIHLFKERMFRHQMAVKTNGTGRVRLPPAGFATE
T6 sequence (P11627 20-1123 limits assumed): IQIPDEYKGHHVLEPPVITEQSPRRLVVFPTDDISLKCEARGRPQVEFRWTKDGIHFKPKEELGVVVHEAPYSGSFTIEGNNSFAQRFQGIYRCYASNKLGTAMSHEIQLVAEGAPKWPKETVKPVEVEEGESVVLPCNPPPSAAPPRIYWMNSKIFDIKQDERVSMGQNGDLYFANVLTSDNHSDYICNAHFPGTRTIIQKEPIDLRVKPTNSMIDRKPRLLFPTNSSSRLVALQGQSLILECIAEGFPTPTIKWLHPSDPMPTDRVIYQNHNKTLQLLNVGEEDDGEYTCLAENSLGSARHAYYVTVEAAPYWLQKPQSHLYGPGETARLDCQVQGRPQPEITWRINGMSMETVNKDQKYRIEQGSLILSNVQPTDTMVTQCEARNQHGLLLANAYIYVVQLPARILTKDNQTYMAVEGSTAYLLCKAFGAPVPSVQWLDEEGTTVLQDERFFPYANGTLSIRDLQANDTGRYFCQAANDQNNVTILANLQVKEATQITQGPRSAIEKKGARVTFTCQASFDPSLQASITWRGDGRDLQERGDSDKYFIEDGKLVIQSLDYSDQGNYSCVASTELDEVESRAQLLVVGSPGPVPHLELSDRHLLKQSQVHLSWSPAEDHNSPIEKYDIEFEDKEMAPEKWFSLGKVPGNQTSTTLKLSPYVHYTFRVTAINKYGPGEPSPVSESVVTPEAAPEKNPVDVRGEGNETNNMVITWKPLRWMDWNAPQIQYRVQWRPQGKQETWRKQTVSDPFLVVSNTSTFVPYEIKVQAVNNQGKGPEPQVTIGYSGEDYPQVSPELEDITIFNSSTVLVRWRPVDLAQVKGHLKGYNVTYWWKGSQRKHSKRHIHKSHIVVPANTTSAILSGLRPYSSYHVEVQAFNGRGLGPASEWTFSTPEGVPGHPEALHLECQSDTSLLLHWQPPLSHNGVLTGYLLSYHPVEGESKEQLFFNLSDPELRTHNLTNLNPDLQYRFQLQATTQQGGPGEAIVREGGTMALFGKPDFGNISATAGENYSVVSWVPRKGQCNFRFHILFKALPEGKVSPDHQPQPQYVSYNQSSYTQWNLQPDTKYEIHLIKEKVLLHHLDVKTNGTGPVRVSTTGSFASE
T5 sequence (P11627 20-1260): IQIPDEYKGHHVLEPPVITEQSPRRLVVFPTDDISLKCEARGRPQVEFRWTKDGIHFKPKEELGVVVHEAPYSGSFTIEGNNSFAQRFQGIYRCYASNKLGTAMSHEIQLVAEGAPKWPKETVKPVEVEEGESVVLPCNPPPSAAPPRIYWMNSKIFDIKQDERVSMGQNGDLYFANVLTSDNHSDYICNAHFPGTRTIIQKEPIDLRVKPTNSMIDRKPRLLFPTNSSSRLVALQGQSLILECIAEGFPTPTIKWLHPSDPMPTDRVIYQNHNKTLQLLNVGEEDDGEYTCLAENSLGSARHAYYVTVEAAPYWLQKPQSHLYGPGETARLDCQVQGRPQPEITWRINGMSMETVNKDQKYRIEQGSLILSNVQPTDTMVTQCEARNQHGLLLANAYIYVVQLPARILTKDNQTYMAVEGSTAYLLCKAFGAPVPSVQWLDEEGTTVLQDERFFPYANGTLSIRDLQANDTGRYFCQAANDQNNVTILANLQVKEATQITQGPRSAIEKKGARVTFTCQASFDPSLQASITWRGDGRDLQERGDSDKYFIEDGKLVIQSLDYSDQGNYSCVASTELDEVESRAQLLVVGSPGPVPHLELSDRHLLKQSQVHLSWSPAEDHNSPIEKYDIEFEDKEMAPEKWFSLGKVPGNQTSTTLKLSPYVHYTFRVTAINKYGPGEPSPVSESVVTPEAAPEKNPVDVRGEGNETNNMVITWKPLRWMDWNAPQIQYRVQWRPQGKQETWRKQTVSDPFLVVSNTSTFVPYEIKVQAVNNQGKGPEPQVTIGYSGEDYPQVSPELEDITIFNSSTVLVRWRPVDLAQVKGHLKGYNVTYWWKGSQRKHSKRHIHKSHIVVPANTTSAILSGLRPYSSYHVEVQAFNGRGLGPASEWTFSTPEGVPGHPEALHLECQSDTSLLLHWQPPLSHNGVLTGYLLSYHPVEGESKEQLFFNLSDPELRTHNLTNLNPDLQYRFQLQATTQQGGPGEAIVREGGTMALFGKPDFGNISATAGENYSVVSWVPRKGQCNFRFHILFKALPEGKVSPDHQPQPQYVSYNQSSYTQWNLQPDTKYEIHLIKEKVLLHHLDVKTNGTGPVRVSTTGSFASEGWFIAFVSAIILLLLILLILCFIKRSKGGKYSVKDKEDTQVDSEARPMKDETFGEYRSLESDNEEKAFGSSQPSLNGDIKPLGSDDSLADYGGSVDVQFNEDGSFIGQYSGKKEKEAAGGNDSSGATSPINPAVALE

B1: TDI-Y-004 (antibody, human IgG1, kappa, V domains shown)
VH: QVQLVQSGAEVKKPGSSVKVSCKASGYTFTNYYIHWVRQAPGQGLEWMGKIGPGSGSPYYQGMFKDRVTITADESTSTAYMELSSLRSEDTAVYYCARWLLPFDYWGQGTLVTVSS
VL: EIVLTQSPGTLSLSPGERATLSCRASSSVNYMHWYQQKPGQAPRLLIYATSILASGIPDRFSGSGSGTDYTLTISRLEPEDFAVYYCQQFSSDPLTFGGGTKVEIKR
notes: Human IgG1, kappa; also called humanized 143G03 (N61Q) mAb; hz143G03 (N61Q)
binding result [1]: no binding (tested: 1 µM) | EC50 [2]: 1.3 nM | Kd [3]: 0.35 nM | koff [3]: 9.5e-05 s⁻¹ | kon [3]: 270000 M⁻¹ s⁻¹ | EC50 [4]: 2.5 nM | EC50 [5]: 2.2 nM | Kd [6]: 0.3 nM | koff [6]: 4.7e-05 s⁻¹ | kon [6]: 160000 M⁻¹ s⁻¹ | binding result [7]: no binding | Kd [8]: 0.3 nM | koff [8]: 4.7e-05 s⁻¹ | kon [8]: 160000 M⁻¹ s⁻¹ | EC50 [9]: 2.2 nM | fold difference of KD against human L1CAM [10]: ≤ 1.2 fold | binding result [11]: no binding (tested: dilution series starting at 50 nM) | fold difference in KD against TDI-Y-005 [12]: ~10 fold | EC50 [13]: 1.3 nM | EC50 [14]: 2.5 nM | Kd [15]: 0.35 nM | koff [15]: 9.5e-05 s⁻¹ | kon [15]: 270000 M⁻¹ s⁻¹
